# Measured values as given in patent publication US20180355043A1 (Janssen / Centocor, published 2018).
# Changes are numbered by the printed parent chain. Read-outs that look alike come from different tables or passages of the source.
# B1: DR4B6 (antibody, V domains shown)
# VH: QIQLVQSGPELKKPGETVKISCKASGFTFTNYGMNWVKQAPGKGLKWMGWINTYTREPTYADDFKGRFAFSLETSASTAYLQINNLKNEDTAKYFCARDITAVVPTGFDYWGQGTTLTVSS
# VL: DIQMTQSPASLSVSVGETVTITCRASENIYSNLAWYRQKQGKSPQLLVFAASNLADGVPSRFSGSGSGTQYSLKINSLQSEDFGDYYCQHFWTTPWAFGGGTNLEIK
# notes: also called L243 re-engineered as IgG2sigma
# B2: DR4B33 (antibody, human IgG2, kappa, V domains shown)
# VH: EVQLVQSGAEVKKPGESLKISCKGSGYSFDSAYINWVRQMPGKGLEWMGIIRPGDSRTRYSPSFQGQVTISADKSISTAYLQWSSLKASDTAVYYCARDGYYFVGSIIYYGMDVWGQGTLVTVSS
# VL: not shown
# notes: also called VH DR4H58 / VL PH9L4
# B3: DR4B5 (antibody, V domains shown)
# VH: QVQLQESGPGLVKPSETLSLTCTVSGFSLTNYGVHWVRQSPGKGLEWIGVKWSGGSTEYNAAFISRLTISKDTSKNQVSLKLNSLTAADTAVYYCARNDRYAMDYWGQGTLVTVSS
# VL: DIQMTQSPSSLSASVGDRVTITCRASENIYSYLAWYQQKPGKAPKLLVSNAKTLAEGVPSRFSGSGSGKQFTLTISSLQPEDFATYYCQHHYGNSYPFGQGTKLEIK
# notes: also called apolizumab (1D10) re-engineered as IgG2sigma
# B4: DR4B98 (antibody, human IgG2, kappa, V domains shown)
# VH: QVQLVQSGAEVKKPGSSVKVSCKASGGTFKSYYIHWVRQAPGQGLEWMGGIAPIYGTAYYAQKFQGRVTITADESTSTAYMELSSLRSEDTAVYYCARDASWARAYGFDYWGQGTLVTVSS
# VL: EIVLTQSPATLSLSPGERATLSCRASQSVSSYLAWYQQKPGQAPRLLIYDASNRATGIPARFSGSGSGTDFTLTISSLEPEDFAVYYCQQRSNWPLTFGQGTKVEIKR
# notes: also called VH DR4H50 / VL PH9L3
# B5: DR4B78 (antibody, human IgG2, kappa, V domains shown)
# VH: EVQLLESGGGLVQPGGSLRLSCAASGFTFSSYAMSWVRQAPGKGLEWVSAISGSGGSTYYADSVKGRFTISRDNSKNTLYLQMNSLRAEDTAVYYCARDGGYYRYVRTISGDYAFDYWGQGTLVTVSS
# VL: B4 VL
# notes: also called VH DR4H62 / VL PH9L3
# B6: DR4B30 (antibody, human IgG2, kappa, V domains shown)
# VH: EVQLVQSGAEVKKPGESLKISCKGSGYSFTSDWIGWVRQMPGKGLEWMGIIRPGDSDTYYSPSFQGQVTISADKSISTAYLQWSSLKASDTAVYYCARESYYYVGVRYRPSYYFDYWGQGTLVTVSS
# VL: B4 VL
# notes: also called VH DR4H39 / VL PH9L3
# B7: DR4B70 (antibody, human IgG2, kappa, V domains shown)
# VH: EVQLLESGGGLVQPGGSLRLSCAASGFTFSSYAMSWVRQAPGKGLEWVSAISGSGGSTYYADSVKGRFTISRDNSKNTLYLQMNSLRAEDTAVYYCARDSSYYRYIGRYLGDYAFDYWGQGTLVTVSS
# VL: B4 VL
# notes: also called VH DR4H29 / VL PH9L3
# B8: DR4B38 (antibody, human IgG2, kappa, V domains shown)
# VH: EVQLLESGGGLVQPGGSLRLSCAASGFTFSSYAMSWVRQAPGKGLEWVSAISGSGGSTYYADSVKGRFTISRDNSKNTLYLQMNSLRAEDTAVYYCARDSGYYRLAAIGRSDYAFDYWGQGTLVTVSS
# VL: B4 VL
# notes: also called VH DR4H56 / VL PH9L3
# B9: DR4B22 (antibody, human IgG2, kappa, V domains shown)
# VH: EVQLLESGGGLVQPGGSLRLSCAASGFTFSSYAMNWVRQAPGKGLEWVSAISGSGGYTNYADSVKGRFTISRDNSKNTLYLQMNSLRAEDTAVYYCARDGGYYRYVYRYPGDYAFGYWGQGTLVTVSS
# VL: B4 VL
# notes: also called VH DR4H16 / VL PH9L3
# B10: DR4B127 (antibody, human IgG2, kappa, V domains shown)
# VH: B4 VH with A52R, Y55S, T57N, Y59E, W102Y, A103Y, A105N
# VL: B4 VL
# notes: also called VH DR4H7 / VL PH9L3
# B11: DR4B4 (antibody, V domains shown)
# VH: QVQLKESGPGLVAPSQSLSITCTISGFSLTSYGVHWVRQPPGKGLEWLVVIWSDGSTTYNSALKSRLSISKDNSKSQVFLKMNSLQTDDTAIYYCASHYGSTLAFASWGHGTLVTVSA
# VL: DIQMTQSPASLSASVGETVTIICRASVNIYSYLAWYQQKQGKSPQLLVYNAKILAEGVPSRFSGSGSGTQFSLKINSLQPEDFGSYYCQHHYGPFTFGSGTKLEIK
# notes: also called Lym-1 re-engineered as IgG2sigma
# Experiments:
# [1] = target: T1, DR4G89: Human HLA-DRA1*01:02/DRB1*04:01 ECD with hemagglutinin peptide HA_304-318 (human); test: MSD ECL; antigen coated; mAb 0.2 µg/ml
# T1 construct: also called DRG89; HLA-DR4 with HA_304-318
# Procedure: (§1) Select generated antibodies were characterized for their binding to soluble HLA-DR, HLA-DQ or HLA-DP antigens with various peptides attached to the N-terminus of the beta chains. […] The soluble antigens of DR, DP and DQ were coated on MSD standard plates (Meso Scale Discovery, Cat. No. L15XA-3) at 5 μg/ml at 4° C. overnight. […] Binding to DR antigens was tested with four antibody concentrations ranging from 0.04-5 μg/ml. Binding to DP and DQ antigens was tested with one concentration at 5 μg/ml. After three washes, SulfoTag anti-human/NHP Kappa secondary antibody (Meso Scale Discovery, Cat. No. D20TF-6) was added and incubated for 1 hour. After another three washes, the plates were read under MSD reader (Meso Scale Discovery), and electrochemiluminescence (ECL) was measured.
# [2] = target: T2, DR4G93: Human HLA-DRA1*01:02/DRB1*01:01 ECD with hemagglutinin peptide HA_304-318 (human); test: MSD ECL; antigen coated; mAb 0.2 µg/ml
# T2 construct: also called HLA-DR1 with HA_304-318
# Procedure: as §1
# [3] = target: T3, DR4G119: Human HLA-DRA1*01:02/DRB1*10:01 ECD with hemagglutinin peptide HA_304-318 (human); test: MSD ECL; antigen coated; protocol of Example 3
# T3 construct: also called DRB1*10:01 HA
# Procedure: (§2) The soluble antigens of DR, DP and DQ were coated on MSD standard plates (Meso Scale Discovery, Cat. No. L15XA-3) at 5 μg/ml at 4° C. overnight. […] Binding to DR antigens was tested with four antibody concentrations ranging from 0.04-5 μg/ml. Binding to DP and DQ antigens was tested with one concentration at 5 μg/ml. After three washes, SulfoTag anti-human/NHP Kappa secondary antibody (Meso Scale Discovery, Cat. No. D20TF-6) was added and incubated for 1 hour. After another three washes, the plates were read under MSD reader (Meso Scale Discovery), and electrochemiluminescence (ECL) was measured.
# (§3) Select antibodies were further characterized for their binding to soluble HLA-DR, HLA-DQ and HLA-DP antigens in complex with various peptides which were covalently attached to the N-terminus of the beta chains.
# [4] = target: T4, DR4G104: Human HLA-DRA1*01:02/DRB1*04:02 ECD with hemagglutinin peptide HA_304-318 (human); test: MSD ECL; antigen coated; protocol of Example 3
# T4 construct: also called DRB1*04:02 HA
# Procedure: as §2, §3
# [5] = target: T5, DR4G103: Human HLA-DRA1*01:02/DRB1*15:01 ECD with hemagglutinin peptide HA_304-318 (human); test: MSD ECL; antigen coated; protocol of Example 3;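 as to ECL signal: antibodies tested at 0.04–5 µg/ml on plate-coated soluble HLA-DR carrying peptide on the beta chain N-terminus, bound antibody detected by SulfoTag anti-human kappa secondary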
# T5 construct: also called DRB1*15:01 HA
# [6] = target: T1, DR4G89: Human HLA-DRA1*01:02/DRB1*04:01 …; test: MSD ECL; antigen coated
# [7] = target: T2, DR4G93: Human HLA-DRA1*01:02/DRB1*01:01 …; test: MSD ECL; antigen coated
# [8] = target: T4, DR4G104: Human …; test: MSD ECL; antigen coated
# [9] = target: T5, DR4G103: Human …; test: MSD ECL; antigen coated
# [10] = target: T1, DR4G89: Human HLA-DRA1*01:02/DRB1*04:01 …; test: MSD ECL; antigen coated; mAb 0.2 µg/ml; remark: listed apart in the source
# [11] = target: T2, DR4G93: Human HLA-DRA1*01:02/DRB1*01:01 …; test: MSD ECL; antigen coated; mAb 0.2 µg/ml; remark: listed apart in the source
# [12] = target: T1, DR4G89: Human HLA-DRA1*01:02/DRB1*04:01 …; test: SPR ProteOn XPR36; mAb amine-coupled, antigen as analyte; 25 °C
# [13] = target: T2, DR4G93: Human HLA-DRA1*01:02/DRB1*01:01 …; test: as above
Binder,ECL signal [1],ECL signal [2],ECL signal [3],ECL signal [4],ECL signal [5],ECL signal [10],ECL signal [11],other results
B1,1.34e+06 ECL,1.32e+06 ECL,580000 ECL,415000 ECL,142000 ECL,–,–,–
B2,–,–,–,–,–,–,–,binding result [6]: binds; binding result [7]: binds
B3,1.26e+06 ECL,1.3e+06 ECL,132000 ECL,825 ECL,329 ECL,–,–,binding result [8]: no binding; binding result [9]: no binding
B4,775000 ECL,140000 ECL,94700 ECL,421000 ECL,34700 ECL,–,–,–
B5,–,–,–,–,–,979000 ECL,1.06e+06 ECL,–
B6,1.13e+06 ECL,1.07e+06 ECL,–,–,–,1.13e+06 ECL,1.07e+06 ECL,–
B7,–,–,–,–,–,888000 ECL,972000 ECL,–
B8,–,–,–,–,–,1.22e+06 ECL,1.12e+06 ECL,–
B9,–,–,–,–,–,1.01e+06 ECL,896000 ECL,–
B10,1.03e+06 ECL,918000 ECL,1.24e+06 ECL,1.27e+06 ECL,334000 ECL,–,–,Kd [12]: 9.19 nM; koff [12]: 0.000155 s⁻¹; kon [12]: 16800 M⁻¹ s⁻¹; Kd [13]: 47.7 nM; koff [13]: 0.00092 s⁻¹; kon [13]: 19300 M⁻¹ s⁻¹
B11,1.28e+06 ECL,888000 ECL,572000 ECL,451 ECL,287 ECL,–,–,binding result [8]: no binding; binding result [9]: no binding
